Publication doi:10.1101/2021.01.04.425348

Assays:
[1] = target: HSA 82-aa RNC with Cys34, Cys53, and Cys62 mutated to Ala (human); experiment: high-speed atomic force microscopy
[2] = target: protein disulfide isomerase (PDI), wild type (human) (UniProt P07237); experiment: high-speed atomic force microscopy

Sequence of protein disulfide isomerase (PDI), wild type (P07237 18-508): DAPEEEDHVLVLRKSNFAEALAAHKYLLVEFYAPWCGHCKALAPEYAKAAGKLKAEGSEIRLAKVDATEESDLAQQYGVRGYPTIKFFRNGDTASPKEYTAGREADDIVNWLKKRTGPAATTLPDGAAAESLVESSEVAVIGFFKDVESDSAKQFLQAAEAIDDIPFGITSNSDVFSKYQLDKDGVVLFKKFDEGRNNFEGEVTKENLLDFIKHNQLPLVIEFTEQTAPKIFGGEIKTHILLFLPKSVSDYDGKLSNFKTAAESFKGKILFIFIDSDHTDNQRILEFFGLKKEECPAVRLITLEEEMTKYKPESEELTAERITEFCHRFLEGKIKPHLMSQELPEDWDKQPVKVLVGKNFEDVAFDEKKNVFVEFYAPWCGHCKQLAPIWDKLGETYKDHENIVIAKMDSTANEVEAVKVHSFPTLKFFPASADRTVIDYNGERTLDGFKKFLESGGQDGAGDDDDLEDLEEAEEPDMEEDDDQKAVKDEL
Sequence of protein disulfide isomerase (PDI), wild type, P07237 18-508 (enzyme; other documents disagree on this pair) (P07237 18-508): as above

## ER-resident protein 46 (ERp46), wild type (from UniProt Q8NBS9 33-432) (enzyme)
[1]
  RNC binding time (8/59 molecules): 60 s

## protein disulfide isomerase (PDI), wild type, P07237 18-508 (enzyme; other documents disagree on this pair)
[2]
  stoichiometry N: 2

## protein disulfide isomerase (PDI), wild type (from UniProt P07237 18-508) (enzyme)
[1]
  RNC binding time (PDI homodimer, 17/19 molecules): > 60 s
  RNC binding time (PDI monomer, 52/55 molecules): < 10 s
